± gives the uncertainty stated by the source.

The data set can be described thus: abundance fitness (aPCA) (normalised: wild type 0, dead -1); higher = more abundant; growth selection in yeast, the domain comes from the species named. The following applies: Homo sapiens.
In turn, “BAG family molecular chaperone regulator 3 A13C, O95817” registered an abundance fitness of -0.603 ± 0.46.

As for “BAG family molecular chaperone regulator 3 A13D, O95817”, the abundance fitness came to 0.279 ± 0.07. Substance “BAG family molecular chaperone regulator 3 A13E, O95817” returned an abundance fitness of -0.47 ± 0.28.

“BAG family molecular chaperone regulator 3 A13G, O95817” registered an abundance fitness of -0.412 ± 0.094. Turning to “BAG family molecular chaperone regulator 3 A13K, O95817”, the abundance fitness came to 0.174 ± 0.17. The substance “BAG family molecular chaperone regulator 3 A13L, O95817” gave an abundance fitness of 0.127 ± 0.13. “BAG family molecular chaperone regulator 3 A13M, O95817” yielded an abundance fitness of -0.172 ± 0.31.

On to “BAG family molecular chaperone regulator 3 A13Q, O95817”, for which the abundance fitness was -0.167 ± 0.086. The result for “BAG family molecular chaperone regulator 3 A13R, O95817” reads -0.316 ± 0.13; that for “BAG family molecular chaperone regulator 3 A13S, O95817”, -0.321 ± 0.2.

The substance “BAG family molecular chaperone regulator 3 A13T, O95817” showed an abundance fitness of 0.169 ± 0.2. Substance “BAG family molecular chaperone regulator 3 A13V, O95817” came in with an abundance fitness of 0.328 ± 0.087. The figure for “BAG family molecular chaperone regulator 3 A13W, O95817” is -0.774 ± 0.32. In turn, “BAG family molecular chaperone regulator 3 A13Y, O95817” displayed an abundance fitness of -0.047 ± 0.46. In turn, “BAG family molecular chaperone regulator 3 D18C, O95817” had an abundance fitness of -0.009 ± 0.15. “BAG family molecular chaperone regulator 3 D18E, O95817” registered an abundance fitness of -0.058 ± 0.074. For the substance “BAG family molecular chaperone regulator 3 D18F, O95817”, the abundance fitness is -0.343 ± 0.23. Regarding “BAG family molecular chaperone regulator 3 D18H, O95817”, the abundance fitness was -0.394 ± 0.17.

Consider “BAG family molecular chaperone regulator 3 D18I, O95817”, for which the abundance fitness is -0.205 ± 0.27.

For the substance “BAG family molecular chaperone regulator 3 D18K, O95817”, the abundance fitness was 0.22 ± 0.18. The substance “BAG family molecular chaperone regulator 3 D18L, O95817” displayed an abundance fitness of -0.313 ± 0.12.

The substance “BAG family molecular chaperone regulator 3 D18M, O95817” showed an abundance fitness of -0.406 ± 0.26. The result for “BAG family molecular chaperone regulator 3 D18N, O95817” reads 0.148 ± 0.068.

As for “BAG family molecular chaperone regulator 3 D18P, O95817”, the abundance fitness stood at 0.065 ± 0.092. With “BAG family molecular chaperone regulator 3 D18Q, O95817”, the abundance fitness was 0.012 ± 0.19. The figure for “BAG family molecular chaperone regulator 3 D18R, O95817” is -0.116 ± 0.09.

Turning to “BAG family molecular chaperone regulator 3 D18S, O95817”, the abundance fitness is -0.047 ± 0.13. In turn, “BAG family molecular chaperone regulator 3 D18T, O95817” returned an abundance fitness of 0.03 ± 0.11.

Take “BAG family molecular chaperone regulator 3 D18W, O95817”: the abundance fitness was -0.317 ± 0.16. The result for “BAG family molecular chaperone regulator 3 D18Y, O95817” reads -0.641 ± 0.35; that for “BAG family molecular chaperone regulator 3 D20A, O95817”, -0.557 ± 0.15; that for “BAG family molecular chaperone regulator 3 D20C, O95817”, -0.2 ± 0.11. “BAG family molecular chaperone regulator 3 D20E, O95817” yielded an abundance fitness of -0.018 ± 0.1. The result for “BAG family molecular chaperone regulator 3 D20F, O95817” reads -0.09 ± 0.32; that for “BAG family molecular chaperone regulator 3 D20G, O95817”, 0.08 ± 0.06; that for “BAG family molecular chaperone regulator 3 D20I, O95817”, -0.558 ± 0.37. As to “BAG family molecular chaperone regulator 3 D20K, O95817”, the abundance fitness was -0.429 ± 0.23.

On to “BAG family molecular chaperone regulator 3 D20L, O95817”, for which the abundance fitness was -0.495 ± 0.088. “BAG family molecular chaperone regulator 3 D20M, O95817” displayed an abundance fitness of 0.365 ± 0.15. The figure for “BAG family molecular chaperone regulator 3 D20N, O95817” is 0.044 ± 0.13. On to “BAG family molecular chaperone regulator 3 D20P, O95817”, for which the abundance fitness is -0.22 ± 0.19. The substance “BAG family molecular chaperone regulator 3 D20Q, O95817” showed an abundance fitness of -0.789 ± 0.33. In the case of “BAG family molecular chaperone regulator 3 D20R, O95817”, the abundance fitness is -0.228 ± 0.085.

“BAG family molecular chaperone regulator 3 D20S, O95817”: the abundance fitness was 0.15 ± 0.087. The result for “BAG family molecular chaperone regulator 3 D20V, O95817” reads -0.241 ± 0.074; that for “BAG family molecular chaperone regulator 3 D20W, O95817”, -0.42 ± 0.15. Regarding “BAG family molecular chaperone regulator 3 D20Y, O95817”, the abundance fitness was -0.479 ± 0.3. The figure for “BAG family molecular chaperone regulator 3 D31A, O95817” is -0.22 ± 0.12; for “BAG family molecular chaperone regulator 3 D31C, O95817” it is -0.334 ± 0.074. The figure for “BAG family molecular chaperone regulator 3 D31E, O95817” is 0.166 ± 0.077; for “BAG family molecular chaperone regulator 3 D31F, O95817” it is -1.13 ± 0.34. “BAG family molecular chaperone regulator 3 D31G, O95817” came in with an abundance fitness of -0.491 ± 0.084. The figure for “BAG family molecular chaperone regulator 3 D31K, O95817” is -0.477 ± 0.28; for “BAG family molecular chaperone regulator 3 D31L, O95817” it is -0.732 ± 0.1; for “BAG family molecular chaperone regulator 3 D31M, O95817” it is -0.182 ± 0.15. In the case of “BAG family molecular chaperone regulator 3 D31N, O95817”, the abundance fitness is -0.813 ± 0.26. In the case of “BAG family molecular chaperone regulator 3 D31P, O95817”, the abundance fitness is -0.886 ± 0.22. “BAG family molecular chaperone regulator 3 D31Q, O95817” had an abundance fitness of -0.557 ± 0.22. The figure for “BAG family molecular chaperone regulator 3 D31R, O95817” is -0.473 ± 0.071; for “BAG family molecular chaperone regulator 3 D31S, O95817” it is -0.67 ± 0.2. “BAG family molecular chaperone regulator 3 D31T, O95817”: the abundance fitness was -0.56 ± 0.18. As for “BAG family molecular chaperone regulator 3 D31V, O95817”, the abundance fitness is -0.433 ± 0.12. The result for “BAG family molecular chaperone regulator 3 D31W, O95817” reads -0.33 ± 0.13; that for “BAG family molecular chaperone regulator 3 D41A, O95817”, -0.82 ± 0.23.

“BAG family molecular chaperone regulator 3 D41C, O95817” had an abundance fitness of -0.641 ± 0.42.

With “BAG family molecular chaperone regulator 3 D41E, O95817”, the abundance fitness is -0.874 ± 0.2. Regarding “BAG family molecular chaperone regulator 3 D41G, O95817”, the abundance fitness was -0.621 ± 0.14. “BAG family molecular chaperone regulator 3 D41H, O95817” had an abundance fitness of -0.541 ± 0.095. With “BAG family molecular chaperone regulator 3 D41I, O95817”, the abundance fitness was -0.622 ± 0.45.

In the case of “BAG family molecular chaperone regulator 3 D41K, O95817”, the abundance fitness was -1.05 ± 0.41.

The substance “BAG family molecular chaperone regulator 3 D41L, O95817” came in with an abundance fitness of -1.1 ± 0.17.

As to “BAG family molecular chaperone regulator 3 D41M, O95817”, the abundance fitness was -1 ± 0.45. The substance “BAG family molecular chaperone regulator 3 D41N, O95817” registered an abundance fitness of -0.664 ± 0.12. For the substance “BAG family molecular chaperone regulator 3 D41P, O95817”, the abundance fitness was -0.65 ± 0.16.

On to “BAG family molecular chaperone regulator 3 D41Q, O95817”, for which the abundance fitness was -0.364 ± 0.32. With “BAG family molecular chaperone regulator 3 D41R, O95817”, the abundance fitness is -0.59 ± 0.084. “BAG family molecular chaperone regulator 3 D41S, O95817” had an abundance fitness of -0.868 ± 0.27. In the case of “BAG family molecular chaperone regulator 3 D41T, O95817”, the abundance fitness was -0.612 ± 0.23. In the case of “BAG family molecular chaperone regulator 3 D41V, O95817”, the abundance fitness was -0.851 ± 0.099. For the substance “BAG family molecular chaperone regulator 3 D41W, O95817”, the abundance fitness was -1.16 ± 0.44. The substance “BAG family molecular chaperone regulator 3 D51A, O95817” yielded an abundance fitness of -0.682 ± 0.12.

Values taken from the Human Domainome abundance scans (Beltran et al. 2025).
